Assay results: article PMC7948419, “Endophilin recruitment drives membrane curvature generation through coincidence detection of GPCR loop interactions and negative lipid charge” (The Journal of Biological Chemistry, 2020)

What was measured:
[1] = target: beta1-adrenergic receptor TIL (UniProt P08588); conditions: cited from earlier work
[2] = target: T1, full-length rat endophilin A1 (C108S, E241C, C294S, C295S), labeled with Alexa 594-maleimide (rat, UniProt O35179 1-352, C108S | E241C | C294S | C295S, Alexa 594-maleimide on the cysteine (E241C)); assay: confocal fluorescence imaging of recruitment to peptide-conjugated GUVs; TIL-Alexa 488 covalently conjugated (cysteine-maleimide) to GUVs of MCC-PE/DOPC/DiD 5:94.5:0.5; Alexa 594-labeled protein added in solution; HEPES buffer (20 mM HEPES, 150 mM NaCl, 1 mM TCEP, pH 7.4); room temperature; conditions: both partners purified
T1 construct: endophilin A1, rat, full length; The introduction calls endophilin a dimeric protein; also called endophilin-Alexa 594; single cysteine mutant of rat endophilin A1
T1 sequence (O35179 whole entry C108S/E241C/C294S/C295S): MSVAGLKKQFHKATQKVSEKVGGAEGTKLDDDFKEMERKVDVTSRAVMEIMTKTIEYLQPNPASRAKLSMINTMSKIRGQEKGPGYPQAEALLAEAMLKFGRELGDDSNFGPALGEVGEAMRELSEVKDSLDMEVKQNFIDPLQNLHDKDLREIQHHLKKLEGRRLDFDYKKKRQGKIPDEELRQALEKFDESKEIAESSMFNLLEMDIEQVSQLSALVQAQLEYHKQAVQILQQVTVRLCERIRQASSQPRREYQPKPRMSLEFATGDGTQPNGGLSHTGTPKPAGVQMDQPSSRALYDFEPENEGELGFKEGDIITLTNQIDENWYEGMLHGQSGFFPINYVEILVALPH

Sequence of endophilin A1 (Q99962 whole entry): as the sequence (O35179 whole entry C108S/E241C/C294S/C295S) above, with S108C, M133I, C241E, A266P, G270S, A286S, S294C, S295C, Q335H counted along it

Molecule	Kd [1]	binding result [2]
endophilin A1 (from UniProt Q99962)	47 nM	
third intracellular loop (TIL) of the β1-adrenergic receptor (amino acids 246–325), labeled with Alexa 488 (domain or fragment, UniProt P08588 246-325, looked up, Alexa 488 on the N-terminal amine (30 to 50% labeling); Cys261 coupled to the maleimide lipid MCC-PE in the experiments with TIL-conjugated vesicles, β1-adrenergic receptor, third intracellular loop, amino acids 246–325, cloned from the pcDNA3-Flag beta-1-adrenergic-receptor vector; 80 residues, 8861 Da; Cloned into BamHI/EcoRI of pGEX6p1 and cut with PreScission protease, so a few vector residues may remain at the N-terminus (surmise); also called TIL peptide; TIL-Alexa 488; source: E. coli BL21-CodonPlus (DE3)-RIL, purified (GST trap, …)) RVFREAQKQVKKIDSCERRFLGGPARPPSPSPSPVPAPAPPPGPPRPAAAAATAPLANGRAGKRRPSRLVALREQKALKT		binds
